Results on one protein are retold here after PMC3406945, “A smallest 6 kda metalloprotease, mini-matrilysin, in living world: a revolutionary conserved zinc-dependent proteolytic domain- helix-loop-helix catalytic zinc binding domain (ZBD)” (Journal of Biomedical Science, 2012).

Where “and” joins values, the source holds several entries; their conditions need not be identical. Equal values may be shown once.

The data set concerns the molecule itself. As to the kind of experiment: CM-transferrin zymography; purified and refolded 6 kDa ZBD (heparin and Triton X-100 present) in sample buffer without dithiothreitol at room temperature, run on a 12.5% SDS-PAGE gel with 0.3 mg/ml CM-transferrin embedded; oligomer size read from the active bands.

B1: recombinant rat matrilysin zinc-binding domain (ZBD) (domain or fragment, UniProt P50280 212-267, looked up)
chain: LFVATHELGHSLGLGHSSVPSSVMYPTYQGDHSEDFSLTKDDIAGIQKLYGKRNKL
notes: 212-267, said to correspond to human a.a; 188-247; called a 60-residue fragment; Cloned into the Nde1 and BamH1 sites of PET3a; also called 6 kDa ZBD; 6 kDa MMP-7 ZBD
By stoichiometry N is commonly meant a count of units in the complex or per binding partner. On to B1, for which the “stoichiometry N” value is 6 and 8 and 5.
